Reference: patent US20150368661A1 (UNIVERSITY OF LOUISVILLE RESEARCH FOUNDATION, published 2015)
Like-named read-outs stand apart in the source and are kept apart here.

Tests used:
[1] = target: T1, recombinant gp120 from HIV-1 SF162 (clade B) (HIV-1 SF162 (clade B), UniProt P19550 32-502); experiment: gp120-ELISA, plate coated with recombinant gp120, non-linear regression; VRC01p (plant-produced)
T1 construct: domain: gp120; also called gp120SF162

[2] = target: T1, recombinant gp120 from HIV-1 SF162 …; experiment: VRC01p (plant-produced)
[3] = target: T2, HIV-1 Env of strain SF162 (clade B) on Env-pseudotyped virus (HIV-1 SF162 (clade B), UniProt P19550 32-847); experiment: cell-based or functional assay
[4] = target: T3, HIV-1 Env of strain Q769.h5 (clade A) on Env-pseudotyped virus (HIV-1 Q769.h5 (clade A)); experiment: cell-based or functional assay
[5] = target: T4, HIV-1 Env of strain Du156 (clade C) on Env-pseudotyped virus (HIV-1 Du156 (clade C)); experiment: cell-based or functional assay
[6] = target: T5, HIV-1 Env of strain SS1196.1 (clade B) on Env-pseudotyped virus (HIV-1 SS1196.1 (clade B)); experiment: cell-based or functional assay
[7] = target: T2, HIV-1 Env of strain SF162 (clade B) on …; experiment: cell-based or functional assay; remark: listed apart in the source
[8] = target: T3, HIV-1 Env of strain Q769.h5 (clade A) …; experiment: cell-based or functional assay; remark: listed apart in the source
[9] = target: T4, HIV-1 Env of strain Du156 (clade C) on …; experiment: cell-based or functional assay; remark: listed apart in the source
[10] = target: T5, HIV-1 Env of strain SS1196.1 (clade B) …; experiment: cell-based or functional assay; remark: listed apart in the source
[11] = target: T6, recombinant gp120 from HIV-1 DU156 (clade C) (HIV-1 DU156 (clade C)); experiment: gp120-ELISA, plate coated with recombinant gp120, non-linear regression
T6 construct: domain: gp120; also called gp120DU156

[12] = target: T7, recombinant gp120 from HIV-1 Q769.H5 (clade A) (HIV-1 Q769.H5 (clade A)); experiment: as above
T7 construct: domain: gp120

[13] = target: T1, recombinant gp120 from HIV-1 SF162 …; experiment: as above
[14] = target: T1, recombinant gp120 from HIV-1 SF162 …

B1: VRC01p (Nicotiana benthamiana plant-expressed anti-HIV-1 bnMAb VRC01 IgG1 from the L-(KP6pp)-H construct) (antibody)
light: EIVLTQSPGTLSLSPGETAIISCRTSQYGSLAWYQQRPGQAPRLVIYSGSTRAAGIPDRFSGSRWGPDYNLTISNLESGDFGVYYCQQYEFFGQGTKVQVDIKRTVAAPSVFIFPPSDEQLKSGTASVVCLLNNFYPREAKVQWKVDNALQSGNSQESVTEQDSKDSTYSLSSTLTLSKADYEKHKVYACEVTHQGLRSPVTKSFNRGECGGK
heavy: not shown
notes: also called plant-produced VRC01; VRC01p IgG1
Question: B1 was tested. Which EC50 [1] did it give?
Answer: The EC50 was 4.11 mg/L.

Question: What about the Kd [2] of the same binder?
Answer: Its Kd is 3.97 nM.

Question: And the “IC50 (µg/ml) for VRC01p alone, HIV-1 neutralization, TZM-bl cells (VRC01p:GRFT series)” value (from here on “IC50 (µg/ml) … (VRC01p:GRFT series)”) [3]?
Answer: Its value is 0.98 µg/mL.

Question: And the “IC50 (µg/ml) for VRC01p alone, HIV-1 neutralization, TZM-bl cells (VRC01p:MVC series)” value (from here on “IC50 (µg/ml) … (VRC01p:MVC series)”) [3]?
Answer: The value was 0.5 µg/mL.

Question: And the “IC50 (µg/ml) for VRC01p alone, HIV-1 neutralization, TZM-bl cells (VRC01p:TFV series)” value (“IC50 (µg/ml) … (VRC01p:TFV series)” for short) [3]?
Answer: The value was 0.65 µg/mL.

Question: What about the “IC50 (µg/ml) … (VRC01p:GRFT series)” value [4] of the same binder?
Answer: Its value is 0.37 µg/mL.

Question: And the “IC50 (µg/ml) … (VRC01p:MVC series)” value [4]?
Answer: Its value is 0.54 µg/mL.

Question: And the “IC50 (µg/ml) … (VRC01p:TFV series)” value [4]?
Answer: Its value is 0.47 µg/mL.

Question: What about the “IC50 (µg/ml) … (VRC01p:GRFT series)” value [5] of the same binder?
Answer: The value was 0.25 µg/mL.

Question: And the “IC50 (µg/ml) … (VRC01p:MVC series)” value [5]?
Answer: The value was 0.26 µg/mL.

Question: What about the “IC50 (µg/ml) … (VRC01p:TFV series)” value [5] of the same binder?
Answer: The value was 0.23 µg/mL.

Question: And the “IC50 (µg/ml) … (VRC01p:GRFT series)” value [6]?
Answer: Its value is 2.61 µg/mL.

Question: And the “IC50 (µg/ml) … (VRC01p:MVC series)” value [6]?
Answer: The value was 2.22 µg/mL.

Question: What about the “IC50 (µg/ml) … (VRC01p:TFV series)” value [6] of the same binder?
Answer: The value was 2.14 µg/mL.

Question: And the “VRC01p IC50 (µg/ml), HIV-1 neutralization” value (“VRC01p IC50 (µg/ml)” for short) [7]?
Answer: Its value is 0.04 µg/mL.

Question: And the “VRC01p IC50 (µg/ml)” value [8]?
Answer: The value was 0.17 µg/mL.

Question: And the “VRC01p IC50 (µg/ml)” value [9]?
Answer: The value was 0.14 µg/mL.

Question: What about the “VRC01p IC50 (µg/ml)” value [10] of the same binder?
Answer: Its value is 1.32 µg/mL.

Question: And the EC50 [11]?
Answer: The EC50 was 67.9 mg/L.

Question: What about the EC50 [12] of the same binder?
Answer: Its EC50 is 0.35 mg/L.

B2: VRC01HEK (HEK293F cell-produced bnMAb VRC01) (antibody)
light: EIVLTQSPGTLSLSPGETAIISCRTSQYGSLAWYQQRPGQAPRLVIYSGSTRAAGIPDRFSGSRWGPDYNLTISNLESGDFGVYYCQQYEFFGQGTKVQVDIKRTVAAPSVFIFPPSDEQLKSGTASVVCLLNNFYPREAKVQWKVDNALQSGNSQESVTEQDSKDSTYSLSSTLTLSKADYEKHKVYACEVTHQGLRSPVTKSFNRGEC
heavy: not shown
notes: also called human cell-produced VRC01; human cell-derived bnMAb
Question: With B2 as the binder, how does the EC50 [11] read?
Answer: Its EC50 is 15.1 mg/L.

Question: And the EC50 [13]?
Answer: Its EC50 is 4.24 mg/L.

Question: What about the EC50 [12] of the same binder?
Answer: Its EC50 is 0.28 mg/L.

Question: What about the Kd [14] of the same binder?
Answer: Its Kd is 3.82 nM.
